# Test results published in PMC7820495.
# T1: GST-SVIP (Drosophila SVIP, CG32039), Q8IQC6
# T1 chain: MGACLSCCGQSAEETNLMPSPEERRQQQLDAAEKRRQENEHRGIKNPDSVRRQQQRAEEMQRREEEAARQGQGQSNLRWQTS
# B1: MBP-VCP^N-D1 (Drosophila VCP, N-terminal and first D1 ATPase domain), Q7KN62 P134L (protein)
# chain: MADSKGEDLATAILKRKDRPNRLIVEEAQNDDNSVVSLSQAKMDELQLFRGDTVILKGKRRKETVCIVLSDDTCPDEKIRMNRVVRNNLCVHLSDVVSVQSCPDVKYGKRVRILPIDESTEGVTGNLFEIYLKLYFLEAYRPIHMGDNFIVRAAMRPIEFKVVLTDPEPYCIVAPETVIFCDGDPIKREEEEESLNAVGYDDIGGCRKQLAQIKEMVELPLRHPSLFKAIGVKPPRGILMYGPPGTGKTLIARAVANETGAFFFLINGPEIMSKLAGESESNLRKAFEEAEKNSPAIIFIDEIDAIAPKRDKTHGEVERRIVSQLLTLMDGMKKSSHLIVMAATNRPNSIDPALRRFGRFDREIDIGIPDATGRLEVLRIHTKNMKLHDDVDLEQIAAESHGHVGADLASLCSEAALQQIREKMDLIDLEDDKIDAEVLASLAVTMENFRYAMTKSSPSALRETVVEVPNTTWTDIGGLESVKKELQELVQYPVEHPDKFLKFGMQPSRGVLFYGPPGCGKTLLAKAIANECQANFISVKGPELLTMWFGESEANVRDIFDKARSAAPCVLFFDELDSIAKARGGNVGDAGGAADRVINQILTEMDGMGAKKNVFIIGATNRPDIIDPAILRPGRLDQLIYIPLPDDKSREAILKANLRKSPLAKEVDLTYIAKVTQGFSGADLTEICQRACKLAIRQAIEAEIRREKERAENQNSAMDMDEDDPVPEITSAHFEEAMKFARRSVSDNDIRKYEMFAQTLQQSRGFGQNFRFPGQTGNTSGSGNNLPVNSPGDNGDDDLYS
# B2: MBP-VCP^N-D1 (Drosophila VCP, N-terminal and first D1 ATPase domain), Q7KN62 R188Q (protein)
# chain: MADSKGEDLATAILKRKDRPNRLIVEEAQNDDNSVVSLSQAKMDELQLFRGDTVILKGKRRKETVCIVLSDDTCPDEKIRMNRVVRNNLCVHLSDVVSVQSCPDVKYGKRVRILPIDESTEGVTGNLFEIYLKPYFLEAYRPIHMGDNFIVRAAMRPIEFKVVLTDPEPYCIVAPETVIFCDGDPIKQEEEEESLNAVGYDDIGGCRKQLAQIKEMVELPLRHPSLFKAIGVKPPRGILMYGPPGTGKTLIARAVANETGAFFFLINGPEIMSKLAGESESNLRKAFEEAEKNSPAIIFIDEIDAIAPKRDKTHGEVERRIVSQLLTLMDGMKKSSHLIVMAATNRPNSIDPALRRFGRFDREIDIGIPDATGRLEVLRIHTKNMKLHDDVDLEQIAAESHGHVGADLASLCSEAALQQIREKMDLIDLEDDKIDAEVLASLAVTMENFRYAMTKSSPSALRETVVEVPNTTWTDIGGLESVKKELQELVQYPVEHPDKFLKFGMQPSRGVLFYGPPGCGKTLLAKAIANECQANFISVKGPELLTMWFGESEANVRDIFDKARSAAPCVLFFDELDSIAKARGGNVGDAGGAADRVINQILTEMDGMGAKKNVFIIGATNRPDIIDPAILRPGRLDQLIYIPLPDDKSREAILKANLRKSPLAKEVDLTYIAKVTQGFSGADLTEICQRACKLAIRQAIEAEIRREKERAENQNSAMDMDEDDPVPEITSAHFEEAMKFARRSVSDNDIRKYEMFAQTLQQSRGFGQNFRFPGQTGNTSGSGNNLPVNSPGDNGDDDLYS
# B3: MBP-VCP^N-D1 (Drosophila VCP, N-terminal and first D1 ATPase domain), Q7KN62 A154R (protein)
# chain: MADSKGEDLATAILKRKDRPNRLIVEEAQNDDNSVVSLSQAKMDELQLFRGDTVILKGKRRKETVCIVLSDDTCPDEKIRMNRVVRNNLCVHLSDVVSVQSCPDVKYGKRVRILPIDESTEGVTGNLFEIYLKPYFLEAYRPIHMGDNFIVRARMRPIEFKVVLTDPEPYCIVAPETVIFCDGDPIKREEEEESLNAVGYDDIGGCRKQLAQIKEMVELPLRHPSLFKAIGVKPPRGILMYGPPGTGKTLIARAVANETGAFFFLINGPEIMSKLAGESESNLRKAFEEAEKNSPAIIFIDEIDAIAPKRDKTHGEVERRIVSQLLTLMDGMKKSSHLIVMAATNRPNSIDPALRRFGRFDREIDIGIPDATGRLEVLRIHTKNMKLHDDVDLEQIAAESHGHVGADLASLCSEAALQQIREKMDLIDLEDDKIDAEVLASLAVTMENFRYAMTKSSPSALRETVVEVPNTTWTDIGGLESVKKELQELVQYPVEHPDKFLKFGMQPSRGVLFYGPPGCGKTLLAKAIANECQANFISVKGPELLTMWFGESEANVRDIFDKARSAAPCVLFFDELDSIAKARGGNVGDAGGAADRVINQILTEMDGMGAKKNVFIIGATNRPDIIDPAILRPGRLDQLIYIPLPDDKSREAILKANLRKSPLAKEVDLTYIAKVTQGFSGADLTEICQRACKLAIRQAIEAEIRREKERAENQNSAMDMDEDDPVPEITSAHFEEAMKFARRSVSDNDIRKYEMFAQTLQQSRGFGQNFRFPGQTGNTSGSGNNLPVNSPGDNGDDDLYS
# B4: MBP-VCP^N-D1 (Drosophila VCP, N-terminal and first D1 ATPase domain), Q7KN62 R156C (protein)
# chain: MADSKGEDLATAILKRKDRPNRLIVEEAQNDDNSVVSLSQAKMDELQLFRGDTVILKGKRRKETVCIVLSDDTCPDEKIRMNRVVRNNLCVHLSDVVSVQSCPDVKYGKRVRILPIDESTEGVTGNLFEIYLKPYFLEAYRPIHMGDNFIVRAAMCPIEFKVVLTDPEPYCIVAPETVIFCDGDPIKREEEEESLNAVGYDDIGGCRKQLAQIKEMVELPLRHPSLFKAIGVKPPRGILMYGPPGTGKTLIARAVANETGAFFFLINGPEIMSKLAGESESNLRKAFEEAEKNSPAIIFIDEIDAIAPKRDKTHGEVERRIVSQLLTLMDGMKKSSHLIVMAATNRPNSIDPALRRFGRFDREIDIGIPDATGRLEVLRIHTKNMKLHDDVDLEQIAAESHGHVGADLASLCSEAALQQIREKMDLIDLEDDKIDAEVLASLAVTMENFRYAMTKSSPSALRETVVEVPNTTWTDIGGLESVKKELQELVQYPVEHPDKFLKFGMQPSRGVLFYGPPGCGKTLLAKAIANECQANFISVKGPELLTMWFGESEANVRDIFDKARSAAPCVLFFDELDSIAKARGGNVGDAGGAADRVINQILTEMDGMGAKKNVFIIGATNRPDIIDPAILRPGRLDQLIYIPLPDDKSREAILKANLRKSPLAKEVDLTYIAKVTQGFSGADLTEICQRACKLAIRQAIEAEIRREKERAENQNSAMDMDEDDPVPEITSAHFEEAMKFARRSVSDNDIRKYEMFAQTLQQSRGFGQNFRFPGQTGNTSGSGNNLPVNSPGDNGDDDLYS
# B5: MBP-VCP^N-D1 (Drosophila VCP, N-terminal and first D1 ATPase domain), Q7KN62 A436S (protein)
# chain: MADSKGEDLATAILKRKDRPNRLIVEEAQNDDNSVVSLSQAKMDELQLFRGDTVILKGKRRKETVCIVLSDDTCPDEKIRMNRVVRNNLCVHLSDVVSVQSCPDVKYGKRVRILPIDESTEGVTGNLFEIYLKPYFLEAYRPIHMGDNFIVRAAMRPIEFKVVLTDPEPYCIVAPETVIFCDGDPIKREEEEESLNAVGYDDIGGCRKQLAQIKEMVELPLRHPSLFKAIGVKPPRGILMYGPPGTGKTLIARAVANETGAFFFLINGPEIMSKLAGESESNLRKAFEEAEKNSPAIIFIDEIDAIAPKRDKTHGEVERRIVSQLLTLMDGMKKSSHLIVMAATNRPNSIDPALRRFGRFDREIDIGIPDATGRLEVLRIHTKNMKLHDDVDLEQIAAESHGHVGADLASLCSEAALQQIREKMDLIDLEDDKIDSEVLASLAVTMENFRYAMTKSSPSALRETVVEVPNTTWTDIGGLESVKKELQELVQYPVEHPDKFLKFGMQPSRGVLFYGPPGCGKTLLAKAIANECQANFISVKGPELLTMWFGESEANVRDIFDKARSAAPCVLFFDELDSIAKARGGNVGDAGGAADRVINQILTEMDGMGAKKNVFIIGATNRPDIIDPAILRPGRLDQLIYIPLPDDKSREAILKANLRKSPLAKEVDLTYIAKVTQGFSGADLTEICQRACKLAIRQAIEAEIRREKERAENQNSAMDMDEDDPVPEITSAHFEEAMKFARRSVSDNDIRKYEMFAQTLQQSRGFGQNFRFPGQTGNTSGSGNNLPVNSPGDNGDDDLYS
# B6: MBP-VCP^N-D1 (Drosophila VCP, N-terminal and first D1 ATPase domain), Q7KN62 N384H (protein)
# chain: MADSKGEDLATAILKRKDRPNRLIVEEAQNDDNSVVSLSQAKMDELQLFRGDTVILKGKRRKETVCIVLSDDTCPDEKIRMNRVVRNNLCVHLSDVVSVQSCPDVKYGKRVRILPIDESTEGVTGNLFEIYLKPYFLEAYRPIHMGDNFIVRAAMRPIEFKVVLTDPEPYCIVAPETVIFCDGDPIKREEEEESLNAVGYDDIGGCRKQLAQIKEMVELPLRHPSLFKAIGVKPPRGILMYGPPGTGKTLIARAVANETGAFFFLINGPEIMSKLAGESESNLRKAFEEAEKNSPAIIFIDEIDAIAPKRDKTHGEVERRIVSQLLTLMDGMKKSSHLIVMAATNRPNSIDPALRRFGRFDREIDIGIPDATGRLEVLRIHTKHMKLHDDVDLEQIAAESHGHVGADLASLCSEAALQQIREKMDLIDLEDDKIDAEVLASLAVTMENFRYAMTKSSPSALRETVVEVPNTTWTDIGGLESVKKELQELVQYPVEHPDKFLKFGMQPSRGVLFYGPPGCGKTLLAKAIANECQANFISVKGPELLTMWFGESEANVRDIFDKARSAAPCVLFFDELDSIAKARGGNVGDAGGAADRVINQILTEMDGMGAKKNVFIIGATNRPDIIDPAILRPGRLDQLIYIPLPDDKSREAILKANLRKSPLAKEVDLTYIAKVTQGFSGADLTEICQRACKLAIRQAIEAEIRREKERAENQNSAMDMDEDDPVPEITSAHFEEAMKFARRSVSDNDIRKYEMFAQTLQQSRGFGQNFRFPGQTGNTSGSGNNLPVNSPGDNGDDDLYS
# B7: MBP-VCP^N-D1 (Drosophila VCP, N-terminal and first D1 ATPase domain), Q7KN62 L195W (protein)
# chain: MADSKGEDLATAILKRKDRPNRLIVEEAQNDDNSVVSLSQAKMDELQLFRGDTVILKGKRRKETVCIVLSDDTCPDEKIRMNRVVRNNLCVHLSDVVSVQSCPDVKYGKRVRILPIDESTEGVTGNLFEIYLKPYFLEAYRPIHMGDNFIVRAAMRPIEFKVVLTDPEPYCIVAPETVIFCDGDPIKREEEEESWNAVGYDDIGGCRKQLAQIKEMVELPLRHPSLFKAIGVKPPRGILMYGPPGTGKTLIARAVANETGAFFFLINGPEIMSKLAGESESNLRKAFEEAEKNSPAIIFIDEIDAIAPKRDKTHGEVERRIVSQLLTLMDGMKKSSHLIVMAATNRPNSIDPALRRFGRFDREIDIGIPDATGRLEVLRIHTKNMKLHDDVDLEQIAAESHGHVGADLASLCSEAALQQIREKMDLIDLEDDKIDAEVLASLAVTMENFRYAMTKSSPSALRETVVEVPNTTWTDIGGLESVKKELQELVQYPVEHPDKFLKFGMQPSRGVLFYGPPGCGKTLLAKAIANECQANFISVKGPELLTMWFGESEANVRDIFDKARSAAPCVLFFDELDSIAKARGGNVGDAGGAADRVINQILTEMDGMGAKKNVFIIGATNRPDIIDPAILRPGRLDQLIYIPLPDDKSREAILKANLRKSPLAKEVDLTYIAKVTQGFSGADLTEICQRACKLAIRQAIEAEIRREKERAENQNSAMDMDEDDPVPEITSAHFEEAMKFARRSVSDNDIRKYEMFAQTLQQSRGFGQNFRFPGQTGNTSGSGNNLPVNSPGDNGDDDLYS
# Biological target: T1, GST-SVIP (Drosophila SVIP, CG32039), …
# Experiment: in vitro binding titration assay
# Settings: chain shown with the change;; parent: 0.70 uM
row,Binder,Kd [nM]
1,B1,21600
2,B2,1500
3,B3,3610
4,B4,1770
5,B5,600
6,B6,1160
7,B7,600
